Measured values: patent US20210101960A1

Columns and labels:
[1] = target: opioid sensor based on the Mu-opioid receptor (cpGFP inserted into the Loop3 of the Mu-opioid receptor) (human); test: cell-based or functional assay
[2] = target: opioid sensor based on the Mu-opioid receptor (cpGFP inserted into the Loop3 of the Mu-opioid receptor) (human); test: in situ fluorescence titration (drug/response curve, 1 nM to 1 µM DAMGO) on HEK293T cells expressing the opioid sensor

Substance DAMGO (peptide) has a ΔF/F (fluorescence change of the sensor) [1] of 25% and a Kd [2] of 0.025 µM.
